Measured values: article PMC5553292

Biological target: Recombinant human PDK2 (pyruvate dehydrogenase kinase 2) (human)
Test: dynamic light scattering

- stoichiometry N: 2
Substance: Recombinant human PDK2 (pyruvate dehydrogenase kinase 2) (enzyme)
